Data published in patent US20200270325A1 (Merck Sharp & Dohme, published 2020).
Numbered stars: 1 amine (or outer) side, 2 acyl side, 3 side chain; on linkers, the order of the positions; unused ones are H or OH. Square brackets hold non-standard residues; d marks the D form. Side chains are listed from the residue outwards. Ends that are not written are not given here. * marks the point of attachment. Phe(4-CH2NH2) = NCc1ccc(C[C@H](N)C(=O)O)cc1; C18 diacid = O=C(O)CCCCCCCCCCCCCCCCC(=O)*; αMeW = C[C@](N)(Cc1c[nH]c2ccccc12)C(=O)O; C16 diacid = O=C(O)CCCCCCCCCCCCCCC(=O)*; γGlu = O=C(O)[C@H](CCC(=O)[*:2])N[*:1]; Met(O2) = CS(=O)(=O)CC[C@H](N)C(=O)O; αMeD = C[C@](N)(CC(=O)O)C(=O)O; AEEA = NCCOCCOCC(=O)O; Aib = CC(C)(N)C(=O)O

B1: TP622 (peptide)
peptide: H[Aib]QGTFTSD[Phe(4-CH2NH2)]([AEEA-γGlu-C16 diacid])SKYLDARAAQDFVQWL[Met(O2)]DT-NH2
modifications: N-terminus assumed
SMILES: CC(C)C[C@H](NC(=O)[C@H](Cc1ccc(O)cc1)NC(=O)[C@H](CCCCN)NC(=O)[C@H](CO)NC(=O)[C@H](Cc1ccc(CNC(=O)COCCOCCNC(=O)CC[C@H](NC(=O)CCCCCCCCCCCCCCC(=O)O)C(=O)O)cc1)NC(=O)[C@H](CC(=O)O)NC(=O)[C@H](CO)NC(=O)[C@@H](NC(=O)[C@H](Cc1ccccc1)NC(=O)[C@@H](NC(=O)CNC(=O)[C@H](CCC(N)=O)NC(=O)C(C)(C)NC(=O)[C@@H](N)Cc1c[nH]cn1)[C@@H](C)O)[C@@H](C)O)C(=O)N[C@@H](CC(=O)O)C(=O)N[C@@H](C)C(=O)N[C@@H](CCCNC(=N)N)C(=O)N[C@@H](C)C(=O)N[C@@H](C)C(=O)N[C@@H](CCC(N)=O)C(=O)N[C@@H](CC(=O)O)C(=O)N[C@@H](Cc1ccccc1)C(=O)N[C@H](C(=O)N[C@@H](CCC(N)=O)C(=O)N[C@@H](Cc1c[nH]c2ccccc12)C(=O)N[C@@H](CC(C)C)C(=O)N[C@@H](CCS(C)(=O)=O)C(=O)N[C@@H](CC(=O)O)C(=O)N[C@H](C(N)=O)[C@@H](C)O)C(C)C
B2: TP626 (peptide)
peptide: H[Aib]QGTFTSDYSKYLDARAAK([AEEA-γGlu-C18 diacid])DFVQWL[Met(O2)]DT-NH2
modifications: N-terminus assumed
SMILES: CC(C)C[C@H](NC(=O)[C@H](Cc1ccc(O)cc1)NC(=O)[C@H](CCCCN)NC(=O)[C@H](CO)NC(=O)[C@H](Cc1ccc(O)cc1)NC(=O)[C@H](CC(=O)O)NC(=O)[C@H](CO)NC(=O)[C@@H](NC(=O)[C@H](Cc1ccccc1)NC(=O)[C@@H](NC(=O)CNC(=O)[C@H](CCC(N)=O)NC(=O)C(C)(C)NC(=O)[C@@H](N)Cc1c[nH]cn1)[C@@H](C)O)[C@@H](C)O)C(=O)N[C@@H](CC(=O)O)C(=O)N[C@@H](C)C(=O)N[C@@H](CCCNC(=N)N)C(=O)N[C@@H](C)C(=O)N[C@@H](C)C(=O)N[C@@H](CCCCNC(=O)COCCOCCNC(=O)CC[C@H](NC(=O)CCCCCCCCCCCCCCCCC(=O)O)C(=O)O)C(=O)N[C@@H](CC(=O)O)C(=O)N[C@@H](Cc1ccccc1)C(=O)N[C@H](C(=O)N[C@@H](CCC(N)=O)C(=O)N[C@@H](Cc1c[nH]c2ccccc12)C(=O)N[C@@H](CC(C)C)C(=O)N[C@@H](CCS(C)(=O)=O)C(=O)N[C@@H](CC(=O)O)C(=O)N[C@H](C(N)=O)[C@@H](C)O)C(C)C
B3: TP627 (peptide)
peptide: H[Aib]QGTFTSDYSKYLDARAAK([AEEA-γGlu-C16 diacid])DFVQWL[Met(O2)][αMeD]T-NH2
modifications: N-terminus assumed
SMILES: CC(C)C[C@H](NC(=O)[C@H](Cc1ccc(O)cc1)NC(=O)[C@H](CCCCN)NC(=O)[C@H](CO)NC(=O)[C@H](Cc1ccc(O)cc1)NC(=O)[C@H](CC(=O)O)NC(=O)[C@H](CO)NC(=O)[C@@H](NC(=O)[C@H](Cc1ccccc1)NC(=O)[C@@H](NC(=O)CNC(=O)[C@H](CCC(N)=O)NC(=O)C(C)(C)NC(=O)[C@@H](N)Cc1c[nH]cn1)[C@@H](C)O)[C@@H](C)O)C(=O)N[C@@H](CC(=O)O)C(=O)N[C@@H](C)C(=O)N[C@@H](CCCNC(=N)N)C(=O)N[C@@H](C)C(=O)N[C@@H](C)C(=O)N[C@@H](CCCCNC(=O)COCCOCCNC(=O)CC[C@H](NC(=O)CCCCCCCCCCCCCCC(=O)O)C(=O)O)C(=O)N[C@@H](CC(=O)O)C(=O)N[C@@H](Cc1ccccc1)C(=O)N[C@H](C(=O)N[C@@H](CCC(N)=O)C(=O)N[C@@H](Cc1c[nH]c2ccccc12)C(=O)N[C@@H](CC(C)C)C(=O)N[C@@H](CCS(C)(=O)=O)C(=O)N[C@@](C)(CC(=O)O)C(=O)N[C@H](C(N)=O)[C@@H](C)O)C(C)C
B4: TP624 (peptide)
peptide: H[Aib]QGTFTSD[Phe(4-CH2NH2)]([AEEA-AEEA-γGlu-C18 diacid])SKYLDARAAQDFVQWL[Met(O2)][αMeD]T-NH2
modifications: N-terminus assumed
SMILES: CC(C)C[C@H](NC(=O)[C@H](Cc1ccc(O)cc1)NC(=O)[C@H](CCCCN)NC(=O)[C@H](CO)NC(=O)[C@H](Cc1ccc(CNC(=O)COCCOCCNC(=O)COCCOCCNC(=O)CC[C@H](NC(=O)CCCCCCCCCCCCCCCCC(=O)O)C(=O)O)cc1)NC(=O)[C@H](CC(=O)O)NC(=O)[C@H](CO)NC(=O)[C@@H](NC(=O)[C@H](Cc1ccccc1)NC(=O)[C@@H](NC(=O)CNC(=O)[C@H](CCC(N)=O)NC(=O)C(C)(C)NC(=O)[C@@H](N)Cc1c[nH]cn1)[C@@H](C)O)[C@@H](C)O)C(=O)N[C@@H](CC(=O)O)C(=O)N[C@@H](C)C(=O)N[C@@H](CCCNC(=N)N)C(=O)N[C@@H](C)C(=O)N[C@@H](C)C(=O)N[C@@H](CCC(N)=O)C(=O)N[C@@H](CC(=O)O)C(=O)N[C@@H](Cc1ccccc1)C(=O)N[C@H](C(=O)N[C@@H](CCC(N)=O)C(=O)N[C@@H](Cc1c[nH]c2ccccc12)C(=O)N[C@@H](CC(C)C)C(=O)N[C@@H](CCS(C)(=O)=O)C(=O)N[C@@](C)(CC(=O)O)C(=O)N[C@H](C(N)=O)[C@@H](C)O)C(C)C
B5: TP625 (peptide)
peptide: H[Aib]QGTFTSD[Phe(4-CH2NH2)]([AEEA-AEEA-γGlu-C18 diacid])SKYLDARAAQDFVQ[αMeW]L[Met(O2)]DT-NH2
modifications: N-terminus assumed
SMILES: CC(C)C[C@H](NC(=O)[C@H](Cc1ccc(O)cc1)NC(=O)[C@H](CCCCN)NC(=O)[C@H](CO)NC(=O)[C@H](Cc1ccc(CNC(=O)COCCOCCNC(=O)COCCOCCNC(=O)CC[C@H](NC(=O)CCCCCCCCCCCCCCCCC(=O)O)C(=O)O)cc1)NC(=O)[C@H](CC(=O)O)NC(=O)[C@H](CO)NC(=O)[C@@H](NC(=O)[C@H](Cc1ccccc1)NC(=O)[C@@H](NC(=O)CNC(=O)[C@H](CCC(N)=O)NC(=O)C(C)(C)NC(=O)[C@@H](N)Cc1c[nH]cn1)[C@@H](C)O)[C@@H](C)O)C(=O)N[C@@H](CC(=O)O)C(=O)N[C@@H](C)C(=O)N[C@@H](CCCNC(=N)N)C(=O)N[C@@H](C)C(=O)N[C@@H](C)C(=O)N[C@@H](CCC(N)=O)C(=O)N[C@@H](CC(=O)O)C(=O)N[C@@H](Cc1ccccc1)C(=O)N[C@H](C(=O)N[C@@H](CCC(N)=O)C(=O)N[C@@](C)(Cc1c[nH]c2ccccc12)C(=O)N[C@@H](CC(C)C)C(=O)N[C@@H](CCS(C)(=O)=O)C(=O)N[C@@H](CC(=O)O)C(=O)N[C@H](C(N)=O)[C@@H](C)O)C(C)C
B6: TP623 (peptide)
peptide: H[Aib]QGTFTSD[Phe(4-CH2NH2)]([AEEA-γGlu-C18 diacid])SKYLDARAAQDFVQWL[Met(O2)]DT-NH2
modifications: N-terminus assumed
SMILES: CC(C)C[C@H](NC(=O)[C@H](Cc1ccc(O)cc1)NC(=O)[C@H](CCCCN)NC(=O)[C@H](CO)NC(=O)[C@H](Cc1ccc(CNC(=O)COCCOCCNC(=O)CC[C@H](NC(=O)CCCCCCCCCCCCCCCCC(=O)O)C(=O)O)cc1)NC(=O)[C@H](CC(=O)O)NC(=O)[C@H](CO)NC(=O)[C@@H](NC(=O)[C@H](Cc1ccccc1)NC(=O)[C@@H](NC(=O)CNC(=O)[C@H](CCC(N)=O)NC(=O)C(C)(C)NC(=O)[C@@H](N)Cc1c[nH]cn1)[C@@H](C)O)[C@@H](C)O)C(=O)N[C@@H](CC(=O)O)C(=O)N[C@@H](C)C(=O)N[C@@H](CCCNC(=N)N)C(=O)N[C@@H](C)C(=O)N[C@@H](C)C(=O)N[C@@H](CCC(N)=O)C(=O)N[C@@H](CC(=O)O)C(=O)N[C@@H](Cc1ccccc1)C(=O)N[C@H](C(=O)N[C@@H](CCC(N)=O)C(=O)N[C@@H](Cc1c[nH]c2ccccc12)C(=O)N[C@@H](CC(C)C)C(=O)N[C@@H](CCS(C)(=O)=O)C(=O)N[C@@H](CC(=O)O)C(=O)N[C@H](C(N)=O)[C@@H](C)O)C(C)C

Key:
[1] = target: human Glucagon receptor (GCGR) (human, UniProt P47871 26-477); experiment: cell-based or functional assay
human Glucagon receptor (GCGR), sequence (P47871 26-477): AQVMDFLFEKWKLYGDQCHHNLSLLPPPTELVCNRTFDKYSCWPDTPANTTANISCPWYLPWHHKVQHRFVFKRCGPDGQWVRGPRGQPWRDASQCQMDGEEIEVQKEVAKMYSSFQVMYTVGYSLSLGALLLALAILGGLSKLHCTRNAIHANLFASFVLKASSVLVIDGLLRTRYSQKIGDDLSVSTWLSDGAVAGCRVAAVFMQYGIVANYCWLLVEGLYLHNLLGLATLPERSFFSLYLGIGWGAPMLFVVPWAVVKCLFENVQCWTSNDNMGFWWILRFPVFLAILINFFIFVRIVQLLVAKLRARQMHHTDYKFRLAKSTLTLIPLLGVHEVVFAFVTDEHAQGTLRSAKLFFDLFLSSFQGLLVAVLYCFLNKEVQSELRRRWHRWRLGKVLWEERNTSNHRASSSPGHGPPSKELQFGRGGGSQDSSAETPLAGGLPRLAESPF

[2] = target: human GLP-1 receptor (GLP1R) (human, UniProt P43220 24-463); experiment: cell-based or functional assay

Binder | GCGR EC50 human [1] | GLP1R EC50 human [2]
B1 | 30 pM | 90 pM
B2 | 390 pM | 770 pM
B3 | 140 pM | 250 pM
B4 | 1000 pM | 890 pM
B5 | 1300 pM | 390 pM
H[Aib]QGTFTSDYSKYLDARAAK([AEEA-γGlu-C20‑OH])DFVQWL[Met(O2)][αMeD]T-NH2 [TP629] | 3170 pM | 2230 pM
B6 | 90 pM | 170 pM
